According to publication doi:10.1101/2024.05.31.596772 (2024):

Molecular target: microtubules (pig (purified from porcine brain))
Sequence (chain, as listed by the source, chain 1 of 2): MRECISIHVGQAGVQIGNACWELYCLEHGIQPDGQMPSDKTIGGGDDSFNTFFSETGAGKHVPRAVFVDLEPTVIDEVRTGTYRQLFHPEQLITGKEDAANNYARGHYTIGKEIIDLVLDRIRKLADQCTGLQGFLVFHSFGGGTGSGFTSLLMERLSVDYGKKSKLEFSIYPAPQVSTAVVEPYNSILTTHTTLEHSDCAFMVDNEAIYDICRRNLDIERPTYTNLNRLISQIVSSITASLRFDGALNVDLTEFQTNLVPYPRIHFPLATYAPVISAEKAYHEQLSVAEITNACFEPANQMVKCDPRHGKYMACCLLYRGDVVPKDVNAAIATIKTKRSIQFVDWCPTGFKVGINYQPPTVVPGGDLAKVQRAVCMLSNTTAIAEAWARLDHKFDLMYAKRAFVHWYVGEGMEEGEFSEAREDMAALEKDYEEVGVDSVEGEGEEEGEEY
Sequence (chain, as listed by the source, chain 2 of 2): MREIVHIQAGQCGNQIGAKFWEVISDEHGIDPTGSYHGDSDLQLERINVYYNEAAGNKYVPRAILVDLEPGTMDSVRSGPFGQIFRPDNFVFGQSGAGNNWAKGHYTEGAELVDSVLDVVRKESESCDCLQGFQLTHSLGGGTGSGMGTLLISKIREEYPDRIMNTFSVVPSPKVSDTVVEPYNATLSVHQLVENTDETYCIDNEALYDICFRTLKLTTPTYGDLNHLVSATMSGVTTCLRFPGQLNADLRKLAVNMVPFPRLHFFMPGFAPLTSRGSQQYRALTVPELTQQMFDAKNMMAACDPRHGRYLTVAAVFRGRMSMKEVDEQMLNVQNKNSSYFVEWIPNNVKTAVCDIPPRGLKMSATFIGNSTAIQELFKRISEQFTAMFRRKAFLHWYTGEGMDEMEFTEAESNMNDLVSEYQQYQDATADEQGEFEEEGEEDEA

Kd: 2140 nM
B1: GFP-CAMSAP3 CKK (domain or fragment)
chain: GPRLYKEPSAKSNKFIIHNALSHCCLAGKVNEPQKNRILEEIEKSKANHFLILFRDSSCQFRALYTLSGETEELSRLAGYGPRTVTPAMVEGIYKYNSDRKRFTQIPAKTMSMSVDAFTIQGHLWQSKKPTTPKK
